Data published in patent US20140072613A1 (published 2014).

Tests used:
Test in all cases: cell-based or functional assay
[1] = molecular target: PKBβ(h) (human, UniProt P31751 1-481, limits assumed)
[2] = molecular target: MAPKAP-K3(h) (human, UniProt Q16644 1-382, limits assumed)
[3] = molecular target: T1, PKCζ(h) (human, UniProt Q05513 1-592)
T1 sequence (looked up): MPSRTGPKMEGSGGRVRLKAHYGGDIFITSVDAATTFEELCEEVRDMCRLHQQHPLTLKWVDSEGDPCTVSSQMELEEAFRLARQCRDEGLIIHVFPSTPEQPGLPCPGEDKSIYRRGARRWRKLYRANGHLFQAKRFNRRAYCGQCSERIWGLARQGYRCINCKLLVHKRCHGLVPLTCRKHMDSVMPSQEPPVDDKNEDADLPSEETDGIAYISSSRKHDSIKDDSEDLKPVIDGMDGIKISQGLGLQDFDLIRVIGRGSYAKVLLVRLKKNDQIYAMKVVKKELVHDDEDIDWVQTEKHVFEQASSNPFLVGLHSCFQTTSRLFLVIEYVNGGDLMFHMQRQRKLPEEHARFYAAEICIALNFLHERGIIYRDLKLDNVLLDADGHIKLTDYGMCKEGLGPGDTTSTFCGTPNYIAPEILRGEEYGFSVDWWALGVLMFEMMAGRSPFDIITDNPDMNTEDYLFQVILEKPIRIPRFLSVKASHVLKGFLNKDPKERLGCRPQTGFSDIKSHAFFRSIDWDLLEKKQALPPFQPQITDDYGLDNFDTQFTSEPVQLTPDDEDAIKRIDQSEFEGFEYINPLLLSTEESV

[4] = molecular target: MELK(h) (human, UniProt Q14680 1-340, limits assumed)
[5] = molecular target: FGFR3(h) (human, UniProt P22607 397-806)
[6] = molecular target: CHK2(h) (human, UniProt O96017 5-543, limits assumed)
[7] = molecular target: T2, Ret(h) (human, UniProt P07949 658-1114, limits assumed)
T2 sequence (looked up): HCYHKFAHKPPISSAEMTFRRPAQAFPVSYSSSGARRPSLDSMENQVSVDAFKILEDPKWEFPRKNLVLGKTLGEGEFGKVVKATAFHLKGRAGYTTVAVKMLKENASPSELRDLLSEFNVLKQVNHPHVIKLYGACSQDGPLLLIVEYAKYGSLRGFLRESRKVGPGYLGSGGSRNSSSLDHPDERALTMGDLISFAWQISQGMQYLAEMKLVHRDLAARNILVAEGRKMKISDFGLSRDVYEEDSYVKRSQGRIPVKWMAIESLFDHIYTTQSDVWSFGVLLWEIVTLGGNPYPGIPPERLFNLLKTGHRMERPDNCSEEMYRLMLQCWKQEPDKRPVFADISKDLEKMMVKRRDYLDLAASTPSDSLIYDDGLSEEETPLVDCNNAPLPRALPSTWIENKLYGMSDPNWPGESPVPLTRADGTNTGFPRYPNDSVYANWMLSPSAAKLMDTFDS

[8] = molecular target: T3, TBK1(h) (human, UniProt Q9UHD2 1-729)
T3 sequence (looked up): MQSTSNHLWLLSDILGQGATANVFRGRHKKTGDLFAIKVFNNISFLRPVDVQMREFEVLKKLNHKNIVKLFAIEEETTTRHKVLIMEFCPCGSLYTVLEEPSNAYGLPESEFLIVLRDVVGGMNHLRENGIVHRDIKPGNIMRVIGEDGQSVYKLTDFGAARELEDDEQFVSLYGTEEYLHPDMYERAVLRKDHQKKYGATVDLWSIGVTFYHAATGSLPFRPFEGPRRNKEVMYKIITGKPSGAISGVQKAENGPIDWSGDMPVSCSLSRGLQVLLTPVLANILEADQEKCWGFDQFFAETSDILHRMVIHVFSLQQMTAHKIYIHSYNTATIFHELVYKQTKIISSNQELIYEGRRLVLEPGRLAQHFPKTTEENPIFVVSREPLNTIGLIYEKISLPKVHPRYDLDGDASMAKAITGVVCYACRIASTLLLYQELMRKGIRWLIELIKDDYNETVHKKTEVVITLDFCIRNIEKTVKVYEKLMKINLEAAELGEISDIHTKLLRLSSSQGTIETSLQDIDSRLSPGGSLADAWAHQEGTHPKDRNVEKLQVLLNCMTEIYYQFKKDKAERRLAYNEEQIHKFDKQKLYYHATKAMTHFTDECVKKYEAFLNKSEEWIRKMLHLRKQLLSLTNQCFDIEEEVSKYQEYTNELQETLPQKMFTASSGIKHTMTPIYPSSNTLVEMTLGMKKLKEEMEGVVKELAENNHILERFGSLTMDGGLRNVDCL

[9] = molecular target: IRR(h) (human, UniProt P14616 960-1297, limits assumed)
[10] = molecular target: MAPK1(h) (human, UniProt P28482 1-360, limits assumed)
[11] = molecular target: T4, DMPK(h) (human, UniProt Q09013 1-629, limits assumed)
T4 sequence (looked up): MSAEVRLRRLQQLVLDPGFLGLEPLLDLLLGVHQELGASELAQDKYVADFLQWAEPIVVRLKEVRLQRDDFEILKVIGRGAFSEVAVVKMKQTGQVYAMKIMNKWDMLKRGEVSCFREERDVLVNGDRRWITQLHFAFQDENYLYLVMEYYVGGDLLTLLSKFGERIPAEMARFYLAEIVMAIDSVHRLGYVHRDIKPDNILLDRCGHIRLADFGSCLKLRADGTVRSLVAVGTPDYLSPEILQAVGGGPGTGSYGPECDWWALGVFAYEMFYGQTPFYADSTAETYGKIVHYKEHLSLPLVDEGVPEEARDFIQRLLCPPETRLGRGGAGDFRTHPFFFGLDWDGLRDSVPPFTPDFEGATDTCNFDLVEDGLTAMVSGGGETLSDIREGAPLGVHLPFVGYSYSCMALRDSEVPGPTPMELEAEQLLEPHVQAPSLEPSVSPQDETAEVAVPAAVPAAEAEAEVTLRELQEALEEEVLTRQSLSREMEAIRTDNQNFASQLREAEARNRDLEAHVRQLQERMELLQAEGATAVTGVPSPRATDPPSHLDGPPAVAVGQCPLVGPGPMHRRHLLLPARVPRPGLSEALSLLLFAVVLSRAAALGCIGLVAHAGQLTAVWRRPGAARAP

Sequence of FGFR3(h) (P22607 397-806 limits assumed): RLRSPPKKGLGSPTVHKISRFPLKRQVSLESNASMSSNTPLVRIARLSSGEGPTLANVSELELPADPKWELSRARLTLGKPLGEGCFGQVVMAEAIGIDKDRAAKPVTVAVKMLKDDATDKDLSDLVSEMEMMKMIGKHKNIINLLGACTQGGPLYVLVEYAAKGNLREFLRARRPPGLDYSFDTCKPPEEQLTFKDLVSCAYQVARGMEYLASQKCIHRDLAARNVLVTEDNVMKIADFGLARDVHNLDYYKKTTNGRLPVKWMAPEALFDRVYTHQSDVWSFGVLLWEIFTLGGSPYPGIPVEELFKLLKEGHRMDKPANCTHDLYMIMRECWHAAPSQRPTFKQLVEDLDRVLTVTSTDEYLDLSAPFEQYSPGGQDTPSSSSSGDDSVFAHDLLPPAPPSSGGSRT
Sequence of MAPKAP-K3(h) (Q16644 whole entry): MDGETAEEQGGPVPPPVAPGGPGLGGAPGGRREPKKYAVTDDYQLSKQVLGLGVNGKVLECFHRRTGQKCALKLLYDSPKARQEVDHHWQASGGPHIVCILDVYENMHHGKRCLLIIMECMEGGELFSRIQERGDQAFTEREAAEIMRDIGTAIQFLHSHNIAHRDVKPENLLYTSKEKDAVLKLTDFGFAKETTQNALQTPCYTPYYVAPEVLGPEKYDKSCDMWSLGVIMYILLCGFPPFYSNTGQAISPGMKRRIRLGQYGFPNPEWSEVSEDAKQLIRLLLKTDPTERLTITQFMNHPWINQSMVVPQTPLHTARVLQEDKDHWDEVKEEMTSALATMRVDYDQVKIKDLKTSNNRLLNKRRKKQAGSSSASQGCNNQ
Sequence of MELK(h) (Q14680 1-340 limits assumed): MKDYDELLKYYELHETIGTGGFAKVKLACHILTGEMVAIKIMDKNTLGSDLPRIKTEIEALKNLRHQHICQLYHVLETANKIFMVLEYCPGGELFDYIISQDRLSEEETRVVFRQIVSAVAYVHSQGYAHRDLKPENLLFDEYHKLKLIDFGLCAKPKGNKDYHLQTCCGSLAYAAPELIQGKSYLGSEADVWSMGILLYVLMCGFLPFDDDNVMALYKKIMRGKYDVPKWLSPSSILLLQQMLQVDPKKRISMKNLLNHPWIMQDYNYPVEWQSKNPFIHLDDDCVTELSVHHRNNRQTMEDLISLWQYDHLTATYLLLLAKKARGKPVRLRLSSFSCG
Sequence of PKBβ(h) (P31751 whole entry): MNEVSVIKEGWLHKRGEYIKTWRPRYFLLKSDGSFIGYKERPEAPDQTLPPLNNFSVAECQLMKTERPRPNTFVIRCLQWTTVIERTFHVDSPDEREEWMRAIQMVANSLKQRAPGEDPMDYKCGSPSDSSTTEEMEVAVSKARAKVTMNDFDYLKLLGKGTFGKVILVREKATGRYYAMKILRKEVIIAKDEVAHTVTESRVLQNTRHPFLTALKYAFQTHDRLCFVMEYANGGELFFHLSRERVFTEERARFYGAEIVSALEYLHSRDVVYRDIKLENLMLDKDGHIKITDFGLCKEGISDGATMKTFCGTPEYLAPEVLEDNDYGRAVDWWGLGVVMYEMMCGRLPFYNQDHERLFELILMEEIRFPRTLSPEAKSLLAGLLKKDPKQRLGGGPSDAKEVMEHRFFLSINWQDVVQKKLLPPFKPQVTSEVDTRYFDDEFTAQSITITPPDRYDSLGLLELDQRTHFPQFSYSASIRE
Sequence of MAPK1(h) (P28482 whole entry): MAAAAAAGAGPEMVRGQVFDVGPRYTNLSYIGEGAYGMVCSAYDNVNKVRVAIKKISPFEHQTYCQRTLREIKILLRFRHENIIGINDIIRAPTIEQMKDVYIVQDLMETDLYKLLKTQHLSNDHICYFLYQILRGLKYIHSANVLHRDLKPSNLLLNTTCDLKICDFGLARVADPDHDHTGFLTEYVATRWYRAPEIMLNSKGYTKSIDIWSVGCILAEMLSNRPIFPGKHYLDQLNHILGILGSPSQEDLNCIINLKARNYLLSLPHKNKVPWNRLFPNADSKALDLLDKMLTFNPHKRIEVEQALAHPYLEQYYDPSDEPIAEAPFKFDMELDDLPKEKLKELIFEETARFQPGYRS
Sequence of CHK2(h) (O96017 5-543 limits assumed): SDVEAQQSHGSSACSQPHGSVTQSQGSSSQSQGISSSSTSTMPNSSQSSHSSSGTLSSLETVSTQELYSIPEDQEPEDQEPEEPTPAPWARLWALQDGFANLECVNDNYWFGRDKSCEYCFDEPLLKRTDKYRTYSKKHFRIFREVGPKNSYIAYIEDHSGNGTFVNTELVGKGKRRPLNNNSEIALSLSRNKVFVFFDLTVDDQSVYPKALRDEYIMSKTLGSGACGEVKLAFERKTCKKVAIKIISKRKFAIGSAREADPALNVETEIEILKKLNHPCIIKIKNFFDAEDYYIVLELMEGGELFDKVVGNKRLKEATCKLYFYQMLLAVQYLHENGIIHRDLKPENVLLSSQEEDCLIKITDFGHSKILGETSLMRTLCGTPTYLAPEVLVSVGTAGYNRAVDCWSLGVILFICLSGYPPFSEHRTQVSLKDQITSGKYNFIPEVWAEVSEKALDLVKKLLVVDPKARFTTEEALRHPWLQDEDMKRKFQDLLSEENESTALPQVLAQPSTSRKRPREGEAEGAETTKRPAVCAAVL
Sequence of IRR(h) (P14616 960-1297 limits assumed): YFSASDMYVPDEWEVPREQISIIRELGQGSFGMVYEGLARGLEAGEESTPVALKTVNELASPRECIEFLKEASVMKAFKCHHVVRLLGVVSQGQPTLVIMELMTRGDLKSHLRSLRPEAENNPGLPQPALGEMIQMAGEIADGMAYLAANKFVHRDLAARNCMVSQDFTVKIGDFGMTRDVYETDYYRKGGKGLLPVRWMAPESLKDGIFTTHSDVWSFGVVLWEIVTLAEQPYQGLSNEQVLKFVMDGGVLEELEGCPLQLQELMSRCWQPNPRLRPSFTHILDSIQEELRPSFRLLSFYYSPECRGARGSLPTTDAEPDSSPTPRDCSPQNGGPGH

Binder: KAFAKLAARLYRKALARQLGVAA [MMI-0400]
- % activity, 100 µM [1]: 98%
- % activity, 100 µM [2]: 7%
- % activity, 100 µM [3]: 75%
- % activity, 100 µM [4]: 17%
- % activity, 100 µM [5]: 0%
- % activity, 100 µM [6]: 54%
- % activity, 100 µM [7]: 145%
- % activity, 100 µM [8]: 39%
- % activity, 100 µM [9]: 8%
- % activity, 100 µM [10]: 100%
- % activity, 100 µM [11]: 54%

Binder: FAKLAARLYRKALARQLGVAA [MMI-0300]
- % activity, 100 µM [1]: 84%
- % activity, 100 µM [2]: 3%
- % activity, 100 µM [3]: 81%
- % activity, 100 µM [4]: 16%
- % activity, 100 µM [5]: 102%
- % activity, 100 µM [6]: 66%
- % activity, 100 µM [7]: 140%
- % activity, 100 µM [8]: 37%
- % activity, 100 µM [9]: 8%
- % activity, 100 µM [10]: 107%
- % activity, 100 µM [11]: 59%
